Results: the supplement of paper PMC7125110
± gives the standard error. Variants at the floor of the assay were thinned out.

B1: glmS ribozyme (parent)
chain: AUAAAAGCGCCAGAACUACAGAAAUGUAGUUGACGAGGAGGAGGUUUAUCGAAUUUUCGGCGGAUGCCUCCAAA

Variants of: B1
Experiment: self-cleavage kobs at 10000 uM GlcN6P; higher = faster cleavage; RNA array
Conditions: with glucosamine-6-phosphate
How it was run: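 Tiles bearing barcoded ribozyme variants, transcribed in situ by E. coli RNA polymerase on sequenced MiSeq chips, were imaged over ~14 h at 37 °C using a hybridised Cy3 probe. Glucosamine-6-phosphate was supplied at 40 μM to 10 mM in HEPES/KCl/Mg(OAc)2 buffer. kobs came from one- or two-exponential decay fits to normalised per-tile medians, and weighted Michaelis–Menten fits then provided kcat and KM.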

Compared with A15G G66C C68U, C11A G35C G41C is lower in “self-cleavage kobs at 10000 uM GlcN6P” value: 0.000127 ± 2.6e-05 s⁻¹ for the first, under 1e-05 s⁻¹ for the second.

A14U U30C G38C and G7C A48G C50A cannot be ordered by “self-cleavage kobs at 10000 uM GlcN6P” value: under 1e-05 s⁻¹ for the first, under 1e-05 s⁻¹ for the second.

C10G A48G G51C and G7A A12C G51U cannot be ordered by “self-cleavage kobs at 10000 uM GlcN6P” value: under 1e-05 s⁻¹ for the first, under 1e-05 s⁻¹ for the second.

A15U G29C C58A and A6U U45G C67A are within error of each other in “self-cleavage kobs at 10000 uM GlcN6P” value: 6.87e-05 ± 2.7e-05 s⁻¹ for the first, 4.59e-05 ± 1.8e-05 s⁻¹ for the second.

C11U A15U A42U and G7C G9U G41A C50U C71G cannot be ordered by “self-cleavage kobs at 10000 uM GlcN6P” value: under 1e-05 s⁻¹ for the first, under 1e-05 s⁻¹ for the second.

Compared with G9C U31A, C8U C58G U69G is higher in “self-cleavage kobs at 10000 uM GlcN6P” value: under 1e-05 s⁻¹ for the first, 0.000536 ± 0.00016 s⁻¹ for the second.

Going from C16U A33G A36C U57G C58G to A14U G37A G43C G59C, the “self-cleavage kobs at 10000 uM GlcN6P” value falls from 7.07e-05 ± 2e-05 s⁻¹ to under 1e-05 s⁻¹.

C11G G40C U54A C70U C71G and C16G G35C C58U cannot be ordered by “self-cleavage kobs at 10000 uM GlcN6P” value: under 1e-05 s⁻¹ for the first, under 1e-05 s⁻¹ for the second.

Going from C10G C34G A36G G44A U45G U57C C61A C70A to A15G C50G C68A, the “self-cleavage kobs at 10000 uM GlcN6P” value rises from under 1e-05 s⁻¹ to 7.87e-05 ± 1.6e-05 s⁻¹.

First: A12C U57G
Second: C8U G37C C50A G59C A64C
The “self-cleavage kobs at 10000 uM GlcN6P” value of the first is higher: 5.46e-05 ± 1.2e-05 s⁻¹ for the first, under 1e-05 s⁻¹ for the second.

First: C16G U54C C67U
Second: C16G U55G C58U
The “self-cleavage kobs at 10000 uM GlcN6P” value of the first is 13-fold higher: 0.000749 ± 0.00015 s⁻¹ for the first, 5.56e-05 ± 2.5e-05 s⁻¹ for the second.

Going from A28G A52U A53G to A14U G51A U57C, the “self-cleavage kobs at 10000 uM GlcN6P” value falls from 9e-05 ± 1.6e-05 s⁻¹ to under 1e-05 s⁻¹.

Compared with G26U G44U, A12C U69A C71U is 3.9-fold lower in “self-cleavage kobs at 10000 uM GlcN6P” value: 0.000189 ± 3.6e-05 s⁻¹ for the first, 4.87e-05 ± 1.6e-05 s⁻¹ for the second.

A15C G43C G51A C58G and A12C G32A G35A G51C cannot be ordered by “self-cleavage kobs at 10000 uM GlcN6P” value: under 1e-05 s⁻¹ for the first, under 1e-05 s⁻¹ for the second.

First: C11U A12U U46G C70U
Second: C16A U45G A64G
The “self-cleavage kobs at 10000 uM GlcN6P” value of the first is 3.7-fold higher: 0.000953 ± 0.00017 s⁻¹ for the first, 0.000258 ± 5.1e-05 s⁻¹ for the second.

First: A6U A33G G43C G60U
Second: C11U A42C U69A
The “self-cleavage kobs at 10000 uM GlcN6P” value of the first is lower: under 1e-05 s⁻¹ for the first, 9.21e-05 ± 2.5e-05 s⁻¹ for the second.

First: A15U C70U C71U
Second: A15C U30C A39G
The “self-cleavage kobs at 10000 uM GlcN6P” value of the first is 4.3-fold lower: 6.65e-05 ± 1.8e-05 s⁻¹ for the first, 0.000286 ± 6.4e-05 s⁻¹ for the second.

Going from A15U A39U U55A to C11G U25C A53U A64U, the “self-cleavage kobs at 10000 uM GlcN6P” value falls from 0.00299 ± 0.00069 s⁻¹ to under 1e-05 s⁻¹.

Going from A15G U54C C71G to A14U G40C U56A A64G, the “self-cleavage kobs at 10000 uM GlcN6P” value falls from 0.000924 ± 0.00024 s⁻¹ to 8.64e-05 ± 2.9e-05 s⁻¹ (11-fold).

Compared with G9A A33C C50G A52G G59U C71A, A14U U49C C70A is lower in “self-cleavage kobs at 10000 uM GlcN6P” value: 5.24e-05 ± 2e-05 s⁻¹ for the first, under 1e-05 s⁻¹ for the second.

Going from C8U U54A U55A C67G to A12U C50G A52C C70G, the “self-cleavage kobs at 10000 uM GlcN6P” value falls from 0.000463 ± 0.00023 s⁻¹ to 7.94e-05 ± 2.3e-05 s⁻¹ (5.8-fold).

C10A A15C C16U G40A G44A C61G and A15G G35A U57G G62A cannot be ordered by “self-cleavage kobs at 10000 uM GlcN6P” value: under 1e-05 s⁻¹ for the first, under 1e-05 s⁻¹ for the second.

Compared with G7U G13U C16U C50G U56G G66U, A6U A15G G43A C68G is lower in “self-cleavage kobs at 10000 uM GlcN6P” value: 3.32e-05 ± 1.5e-05 s⁻¹ for the first, under 1e-05 s⁻¹ for the second.

A12G C16G C34G U55G and G13C G38A G43C C61U cannot be ordered by “self-cleavage kobs at 10000 uM GlcN6P” value: under 1e-05 s⁻¹ for the first, under 1e-05 s⁻¹ for the second.

C10G G29U U55C and C8A A15U C70U cannot be ordered by “self-cleavage kobs at 10000 uM GlcN6P” value: under 1e-05 s⁻¹ for the first, under 1e-05 s⁻¹ for the second.

C11G A64C C67G and C10A U45A A52U cannot be ordered by “self-cleavage kobs at 10000 uM GlcN6P” value: under 1e-05 s⁻¹ for the first, under 1e-05 s⁻¹ for the second.

A14U G37U A48G U49C C71U and A12U G44U G51A cannot be ordered by “self-cleavage kobs at 10000 uM GlcN6P” value: under 1e-05 s⁻¹ for the first, under 1e-05 s⁻¹ for the second.

A15G G29C G44C and A6C G44A C58U cannot be ordered by “self-cleavage kobs at 10000 uM GlcN6P” value: under 1e-05 s⁻¹ for the first, under 1e-05 s⁻¹ for the second.

C8U G29U G32C G35C A36U C50A A52U and C8G U30G G40A cannot be ordered by “self-cleavage kobs at 10000 uM GlcN6P” value: under 1e-05 s⁻¹ for the first, under 1e-05 s⁻¹ for the second.

G13A A42U U49G C58U and G7C A42G G43A cannot be ordered by “self-cleavage kobs at 10000 uM GlcN6P” value: under 1e-05 s⁻¹ for the first, under 1e-05 s⁻¹ for the second.

First: A15U G37A U47A C67G C70G
Second: A12C A64U
The “self-cleavage kobs at 10000 uM GlcN6P” value of the first is lower: under 1e-05 s⁻¹ for the first, 3.59e-05 ± 5.3e-06 s⁻¹ for the second.

First: A12G U45A U55A
Second: A12C G29C A39U
The “self-cleavage kobs at 10000 uM GlcN6P” value of the first is 2.3-fold higher: 0.00202 ± 0.00039 s⁻¹ for the first, 0.000876 ± 0.0002 s⁻¹ for the second.

Going from C10A C11U G38C U55C C61A A64U to A14G U31C C58A C68U C70U, the “self-cleavage kobs at 10000 uM GlcN6P” value rises from under 1e-05 s⁻¹ to 3.74e-05 ± 1.6e-05 s⁻¹.

A6C G32A G43U and A6C U31A A64C C71G cannot be ordered by “self-cleavage kobs at 10000 uM GlcN6P” value: under 1e-05 s⁻¹ for the first, under 1e-05 s⁻¹ for the second.

A6U G9A G43C A53C C70G and C10G A12G C61U cannot be ordered by “self-cleavage kobs at 10000 uM GlcN6P” value: under 1e-05 s⁻¹ for the first, under 1e-05 s⁻¹ for the second.

C11U G40A A52C G62C and G13U G37A C50U U69A cannot be ordered by “self-cleavage kobs at 10000 uM GlcN6P” value: under 1e-05 s⁻¹ for the first, under 1e-05 s⁻¹ for the second.

Going from C11U A14C A15U G38U C68G to C11G G66C, the “self-cleavage kobs at 10000 uM GlcN6P” value falls from 7.05e-05 ± 3e-05 s⁻¹ to under 1e-05 s⁻¹.

Compared with G7U C16A G62A, A14C G32A U69G is higher in “self-cleavage kobs at 10000 uM GlcN6P” value: under 1e-05 s⁻¹ for the first, 7e-05 ± 1.6e-05 s⁻¹ for the second.

First: C8G C50G C70G
Second: C8G A14U A52C G59C C71U
The “self-cleavage kobs at 10000 uM GlcN6P” value of the first is higher: 0.000104 ± 2.2e-05 s⁻¹ for the first, under 1e-05 s⁻¹ for the second.

A12C G66C and A14C A39U A53G are within error of each other in “self-cleavage kobs at 10000 uM GlcN6P” value: 0.000754 ± 0.00033 s⁻¹ for the first, 0.00135 ± 0.0004 s⁻¹ for the second.

G9U U31G C34U G59U and G9U U31G U45A C61A C68A cannot be ordered by “self-cleavage kobs at 10000 uM GlcN6P” value: under 1e-05 s⁻¹ for the first, under 1e-05 s⁻¹ for the second.

With G7A A33G C68U C70G the “self-cleavage kobs at 10000 uM GlcN6P” value was 5.57e-05 ± 2e-05 s⁻¹.
